Numbering of substitutions follows the chain as printed. One block for each binder: values may come before it.
How the values were obtained:
[1] = biological target: T1, human TfR1 on the cell surface (KMS-11 or MM.1S human MM cells) (human, UniProt P02786 1-760); assay: flow cytometry on KMS-11 cells; semi-quantitative grade
T1 construct: whole, on cells; also called human cells expressing the TfR1; CD71
Description: (§1) KMS-11 cells (Namba et al., In Vitro Cell. Dev. Biol. 25(8):723-729 (1989)), a kind gift from Dr. Lawrence Boise (Emory University, Atlanta, GA, USA), and MM.1S cells (Greenstein et al., Exp. Hematol., 31(4):271-282 (2003)), purchased from the American Type Culture Collection (ATCC, Manassas, VA, USA; ATCC® CRL-2974T”) human MM cells were incubated with 2 μg of humanized antibodies or the control antibodies (ch128.1 as a positive control or a negative isotype control IgG1) for 2 hours on ice. Binding was detected using a PE-conjugated anti-human κ antibody. Samples were analyzed on an LSRII analytical flow cytometer (BD Biosciences, San Jose, CA, USA) and 10,000 events were collected. Histograms were created using the […] Version 3 (De Novo Software, Glendale, CA, USA).

[2] = biological target: T2, soluble human TfR1 (sCD71) (human, UniProt P02786 89-760); assay: ELISA, soluble human TfR1; semi-quantitative grade
T2 construct: extracellular domain; Two sources (Cal Tech, Kerafast) are kept as one molecule; also called Human sCD71; transferrin receptor 1
T2 sequence (P02786 89-760): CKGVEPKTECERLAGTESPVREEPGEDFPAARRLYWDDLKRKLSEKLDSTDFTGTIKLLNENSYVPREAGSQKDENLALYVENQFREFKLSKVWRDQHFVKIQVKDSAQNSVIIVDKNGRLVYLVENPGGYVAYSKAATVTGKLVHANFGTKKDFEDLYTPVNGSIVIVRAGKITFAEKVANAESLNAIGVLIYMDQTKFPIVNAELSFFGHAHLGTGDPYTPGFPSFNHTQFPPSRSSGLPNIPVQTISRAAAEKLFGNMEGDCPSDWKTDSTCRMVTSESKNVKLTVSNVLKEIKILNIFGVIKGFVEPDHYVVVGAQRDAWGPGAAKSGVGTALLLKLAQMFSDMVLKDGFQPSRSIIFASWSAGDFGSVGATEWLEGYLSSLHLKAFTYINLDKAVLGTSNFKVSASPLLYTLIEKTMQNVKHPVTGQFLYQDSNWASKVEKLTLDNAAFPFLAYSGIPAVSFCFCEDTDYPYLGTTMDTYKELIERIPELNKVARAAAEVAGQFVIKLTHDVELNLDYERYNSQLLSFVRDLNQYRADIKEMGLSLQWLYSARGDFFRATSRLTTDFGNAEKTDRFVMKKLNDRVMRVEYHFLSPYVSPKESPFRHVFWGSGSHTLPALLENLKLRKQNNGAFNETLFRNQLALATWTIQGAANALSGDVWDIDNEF

[3] = biological target: TfR1 (antigen; form in the assay not stated) (human, UniProt P02786 89-760, limits assumed); assay: assay not named in the sentence (ELISA and flow cytometry per paragraph 218)
Chain of TfR1 (antigen; form in the assay not stated) (P02786 89-760 limits assumed): as the sequence (P02786 89-760) above

[4] = biological target: T1, human TfR1 on the cell surface (KMS-11 …); assay: flow cytometry on MM.1S cells, 2 ug antibody, PE anti-human kappa detection
Description: as §1

[5] = biological target: T2, soluble human TfR1 (sCD71); assay: ELISA, plate coated with soluble human TfR1 (Kerafast), 2-fold antibody dilutions, AP anti-human kappa detection, A405
Description: (§2) Immulon-H2B plates (Thermo Fisher Scientific, Inc.) were coated overnight at 4° C. with soluble 5 μg/mL TfR1 (sCD71) in 50 mM carbonate/bicarbonate buffer, pH 9.3. Human sCD71 was obtained from either Cal Tech (California Institute of Technology, Pasadena, CA, USA) or Kerafast, Inc., while cynomolgus monkey (Macaca fascicularis) sCD71 was purchased from Sino Biological, Inc. (Wayne, PA, USA). Plates were washed with PBS and blocked with 3% BSA in PBS. Serial 2-fold dilutions of antibodies (200-3.12 ng/mL) were added to the plate in duplicates and incubated overnight at 4° C. Binding was detected with an AP-conjugated goat anti-human κ antibody (MilliporeSigma) and AP substrate, p-nitrophenyl phosphate disodium (MilliporeSigma), dissolved in diethanolamine buffer (9.6% diethanolamine (v/v), 0.24 mM MgCl₂ in water, pH 9.8). Plates were read at absorbance 405 nm using a FilterMax F5 multi-mode microplate reader (Molecular Devices, Sunnyvale, CA, USA).

[6] = biological target: T3, cynomolgus monkey (Macaca fascicularis) soluble TfR1 (sCD71) (cynomolgus monkey (Macaca fascicularis), UniProt H9EXL1 89-760 (rhesus entry)); assay: ELISA, plate coated with soluble cynomolgus monkey TfR1 (Sino Biological), 2-fold antibody dilutions, AP anti-human kappa detection, A405
T3 construct: extracellular domain; also called cynomolgus monkey TfR1; cynomolgus monkey sCD71
T3 sequence (chain, as listed by the source): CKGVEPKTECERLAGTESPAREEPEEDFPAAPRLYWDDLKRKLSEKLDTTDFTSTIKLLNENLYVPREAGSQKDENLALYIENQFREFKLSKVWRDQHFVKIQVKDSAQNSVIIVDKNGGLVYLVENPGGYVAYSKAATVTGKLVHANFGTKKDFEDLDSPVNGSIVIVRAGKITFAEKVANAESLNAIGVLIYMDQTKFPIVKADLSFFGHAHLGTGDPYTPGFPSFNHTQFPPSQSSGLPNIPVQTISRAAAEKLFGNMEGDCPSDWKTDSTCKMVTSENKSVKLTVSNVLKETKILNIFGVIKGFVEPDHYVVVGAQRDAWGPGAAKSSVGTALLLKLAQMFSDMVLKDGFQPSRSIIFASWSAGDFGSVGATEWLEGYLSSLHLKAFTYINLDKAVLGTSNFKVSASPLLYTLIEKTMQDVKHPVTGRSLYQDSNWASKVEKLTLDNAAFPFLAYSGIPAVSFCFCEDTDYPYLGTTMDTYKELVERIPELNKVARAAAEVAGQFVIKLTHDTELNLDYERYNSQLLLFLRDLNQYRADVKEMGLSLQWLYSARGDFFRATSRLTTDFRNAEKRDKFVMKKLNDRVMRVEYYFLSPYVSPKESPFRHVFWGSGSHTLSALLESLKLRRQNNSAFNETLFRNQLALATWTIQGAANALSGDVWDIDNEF
Description: as §2

T1 sequence (P02786 whole entry): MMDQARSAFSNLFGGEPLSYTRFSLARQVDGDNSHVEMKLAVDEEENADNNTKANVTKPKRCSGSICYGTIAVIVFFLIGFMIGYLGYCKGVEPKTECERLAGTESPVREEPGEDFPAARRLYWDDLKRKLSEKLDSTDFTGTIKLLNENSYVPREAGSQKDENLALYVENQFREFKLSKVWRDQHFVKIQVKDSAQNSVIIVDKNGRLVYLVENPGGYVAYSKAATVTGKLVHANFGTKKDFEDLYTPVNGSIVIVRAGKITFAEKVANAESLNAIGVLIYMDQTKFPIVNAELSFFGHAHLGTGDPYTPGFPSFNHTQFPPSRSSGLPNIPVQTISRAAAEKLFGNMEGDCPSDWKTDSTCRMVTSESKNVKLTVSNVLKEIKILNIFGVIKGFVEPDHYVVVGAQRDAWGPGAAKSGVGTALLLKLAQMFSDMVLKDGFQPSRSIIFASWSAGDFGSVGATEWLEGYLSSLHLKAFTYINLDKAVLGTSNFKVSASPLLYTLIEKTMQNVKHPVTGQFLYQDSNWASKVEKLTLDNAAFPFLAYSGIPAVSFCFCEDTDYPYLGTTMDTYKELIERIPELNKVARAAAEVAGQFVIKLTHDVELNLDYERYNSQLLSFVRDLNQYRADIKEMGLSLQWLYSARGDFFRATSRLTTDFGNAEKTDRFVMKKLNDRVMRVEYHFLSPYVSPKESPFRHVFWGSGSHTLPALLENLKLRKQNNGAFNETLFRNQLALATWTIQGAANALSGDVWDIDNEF

B1: H8L8 (antibody, human IgG1, V domains shown)
VH: QVQLVESGGGVVQPGRSLRLSCAASGYSFTGYTMNWVRQAPGNGLEWVARINPHNGGTDYNQKFKDRFTISRDNSKNTLYLQMNSLRAEDTAVYYCARGYYYYSLDYWGQGTTVTVSS
VL: EIVLTQSPDFQSVTPKEKVTITCSASSSIRYIHWYQQRPDQSPKRWIYDTSNLASGVPSRFSGSGSGTSYSLTINSLEAEDAATYYCHQRNSYPWTFGQGTKVEIK
notes: humanized; also called hu128.1
binding result [1]: binds
binding result [2]: binds

B2: H8L6 (antibody, human IgG1, V domains shown)
VH: B1 VH
VL: B1 VL with H88Q
notes: as for B1
binding result [1]: binds
binding result [2]: binds

B4: H8L10 (antibody, human IgG1, V domains shown)
VH: B1 VH
VL: B1 VL with S69D, Y70F, S71T
notes: as for B1
binding result [4]: binds
binding result [5]: binds
EC50 (read off the curve) [6]: ~0.04 µg/mL

B5: ch128.1 (antibody, human IgG1, V domains shown)
VH: EVQLQQSGPELVKPGASMKISCKASGYSFTGYTMNWVKQSHGENLEWIGRINPHNGGTDYNQKFKDKAPLTVDKSSNTAYMELLSLTSGDSAVYYCARGYYYYSLDYWGQGTSVTVSS
VL: QIVLTQSPAIMSVSPGEKVTMTCSASSSIRYIHWYQQRPGTSPKRWIYDTSNLASGVPARFSGSGSGTSYSLTISSMEAEDAATYYCHQRNSYPWTFGGGTRLEIR
notes: mouse 128.1 V regions; also called chimeric antibody; parental chimeric antibody
binding result [4]: binds
EC50 (read off the curve) [6]: ~0.03 µg/mL

B6: H6L7 (antibody, human IgG1, V domains shown)
VH: EVQLVQSGAEVKKPGESLKISCKGSGYSFTGYTMNWVRQMPGKGLEWMGRINPHNGGTDYNQKFKDQVTISADKSISTAYLQWSSLKASDTAMYYCARGYYYYSLDYWGQGTLVTVSS
VL: EIVLTQSPATLSLSPGERATLSCSASSSIRYIHWYQQKPGQAPRRWIYDTSNLASGTPARFSGSGSGTSYSLTISSLEPEDFAVYYCHQRNSYPWTFGQGTKVEIK
notes: as for B1
binding result [4]: binds
binding result [5]: binds
EC50 (read off the curve) [6]: ~0.03 µg/mL

B7: H8L7 (antibody, human IgG1, V domains shown)
VH: B1 VH
VL: B6 VL
notes: as for B1
binding result [1]: binds
binding result [2]: binds

B8: H8L9 (antibody, human IgG1, V domains shown)
VH: B1 VH
VL: B6 VL with S69D, Y70F, S71T
notes: as for B1
binding result [4]: binds
binding result [5]: binds
EC50 (read off the curve) [6]: ~0.04 µg/mL

B9: H6L8 (antibody, human IgG1, V domains shown)
VH: B6 VH
VL: B1 VL
notes: as for B1
binding result [1]: binds
binding result [2]: binds

B10: H6L11 (antibody, human IgG1, V domains shown)
VH: B6 VH
VL: B6 VL with R45L, W46L
notes: as for B1
binding result [1]: binds
binding result [2]: binds

B13: H6L10 (antibody, human IgG1, V domains shown)
VH: B6 VH
VL: B1 VL with S69D, Y70F, S71T
notes: as for B1
binding result [1]: binds
binding result [2]: binds

B14: H6L6 (antibody, human IgG1, V domains shown)
VH: B6 VH
VL: B1 VL with H88Q
notes: as for B1
binding result [1]: binds
binding result [2]: binds

The remaining lines, values ahead:

binding result [3]: no binding
B3: H8L3 (antibody, human IgG1, V domains shown)
VH: B1 VH
VL: B1 VL with R45L, W46L, S69D, Y70F, S71T
notes: as for B1

binding result [3]: no binding
B11: H8L2 (antibody, human IgG1, V domains shown)
VH: B1 VH
VL: B6 VL with L13V, K38R, R45L, W46L, S69D, Y70F, S71T
notes: as for B1

binding result [3]: no binding
B12: H8L4 (antibody, human IgG1, V domains shown)
VH: B1 VH
VL: B6 VL with L13V, K38R, R45L, W46L, T57I, S69D, Y70F, S71T, Q99P, E104D
notes: as for B1

binding result [1]: binds
binding result [2]: binds
B15: H6L5 (antibody, human IgG1, V domains shown)
VH: B6 VH
VL: B6 VL with H88Q
notes: as for B1

binding result [1]: binds
binding result [2]: binds
B16: H6L12 (antibody, human IgG1, V domains shown)
VH: B6 VH
VL: B1 VL with R45L, W46L
notes: as for B1

binding result [3]: no binding
B17: H8L1 (antibody, human IgG1, V domains shown)
VH: B1 VH
VL: B6 VL with R45L, W46L, S69D, Y70F, S71T
notes: as for B1

binding result [1]: binds
binding result [2]: binds
B18: H8L5 (antibody, human IgG1, V domains shown)
VH: B1 VH
VL: B6 VL with H88Q
notes: as for B1

binding result [4]: binds
binding result [5]: binds
EC50 (read off the curve) [6]: ~0.03 µg/mL
B19: H6L9 (antibody, human IgG1, V domains shown)
VH: B6 VH
VL: B6 VL with S69D, Y70F, S71T
notes: as for B1

— patent US20260209376A1 (University of California, published 2026)
